Data published in US7488598B2, “Mutant purine nucleoside phosphorylase proteins and cellular delivery thereof” (priority 2001, dated 2009).

Legend:
[1] = target: E. coli PNP mutant M65V (Escherichia coli, UniProt P0ABP8, M65V); details: Table III, 100 μM substrate, HPLC, average of separate experiments
[2] = target: wild-type E. coli PNP (Escherichia coli, UniProt P0ABP8); details: Table III; 100 μM substrate; HPLC; average of separate experiments
[3] = E. coli PNP enzyme activity with substrate F-araA; details: percent of wild-type activity
[4] = E. coli PNP enzyme activity with substrate MeP-dR; details: for Percent of Control Activity, MeP-dR: substrate MeP-dR, percent of wild-type activity; for activity toward substrates MeP-dR and F-araA (in words): Table I

| Molecule | Percent of Control Activity, F-araA [3] [%] | Percent of Control Activity, MeP-dR [4] [%] | also measured |
| --- | --- | --- | --- |
| Cc1ncnc2c1ncn2[C@@H]1O[C@H](CO)[C@@H](O)[C@H]1O [9-(β-D-ribofuranosyl)-6-methylpurine, 6-Methyl-9-(β-D-ribofuranosyl)purine] | – | – | M65V, pure enzyme, rate of cleavage ([1]; pure enzyme): 140,000 nmole/mg/hr; Wild type, pure enzyme, rate of cleavage [2]: 100,000 nmole/mg/hr |
| Nc1ncnc2c1ncn2[C@@H]1OC[C@@H](O)[C@@H](O)[C@H]1O [9-(β-D-ribopyranosyl)-adenine] | – | – | M65V, crude extract, rate of cleavage [1]: — (No detectable activity at 100 μg/ml (limit of detection approximately 1 nmole/mg/hr)); Wild type, pure enzyme, rate of cleavage [2]: — (No detectable activity at 100 μg/ml (limit of detection approximately 1 nmole/mg/hr)) |
| Cc1ncnc2c1ncn2[C@@H]1O[C@H](CO)[C@H](O)[C@H]1O [9-(β-D-xylofuranosyl)-6-methylpurine] | – | – | M65V, crude extract, rate of cleavage [1]: — (No detectable activity at 100 μg/ml (limit of detection approximately 1 nmole/mg/hr)); Wild type, pure enzyme, rate of cleavage [2]: — (No detectable activity at 100 μg/ml (limit of detection approximately 1 nmole/mg/hr)) |
| A157L (protein, UniProt P0ABP8 2-239, looked up, variant A157L) Purine nucleoside …: ATPHINAEMGDFADVVLMPGDPLRAKYIAETFLEDAREVNNVRGMLGFTGTYKGRKISVMGHGMGIPSCSIYTKELITDFGVKKIIRVGSCGAVLPHVKLRDVVIGMGACTDSKVNRIRFKDHDFAAIADFDMVRNAVDAAKALGIDARVGNLFSLDLFYSPDGEMFDVMEKYGILGVEMEAAGIYGVAAEFGAKALTICTVSDHIRTHEQTTAAERQTTFNDMIKIALESVLLGDKE | 21 | 12 | activity toward substrates MeP-dR and F-araA (in words) [4]: retained some appreciable level of activity |
| M181A (protein, UniProt P0ABP8 2-239, looked up, variant M181A) Purine nucleoside …: ATPHINAEMGDFADVVLMPGDPLRAKYIAETFLEDAREVNNVRGMLGFTGTYKGRKISVMGHGMGIPSCSIYTKELITDFGVKKIIRVGSCGAVLPHVKLRDVVIGMGACTDSKVNRIRFKDHDFAAIADFDMVRNAVDAAKALGIDARVGNLFSADLFYSPDGEMFDVMEKYGILGVEAEAAGIYGVAAEFGAKALTICTVSDHIRTHEQTTAAERQTTFNDMIKIALESVLLGDKE | 0.2 | 0.04 | – |
| E180S (protein, UniProt P0ABP8 2-239, looked up, variant E180S) Purine nucleoside …: ATPHINAEMGDFADVVLMPGDPLRAKYIAETFLEDAREVNNVRGMLGFTGTYKGRKISVMGHGMGIPSCSIYTKELITDFGVKKIIRVGSCGAVLPHVKLRDVVIGMGACTDSKVNRIRFKDHDFAAIADFDMVRNAVDAAKALGIDARVGNLFSADLFYSPDGEMFDVMEKYGILGVSMEAAGIYGVAAEFGAKALTICTVSDHIRTHEQTTAAERQTTFNDMIKIALESVLLGDKE | 0.8 | 0.5 | – |
| E180N (protein, UniProt P0ABP8 2-239, looked up, variant E180N) Purine nucleoside …: ATPHINAEMGDFADVVLMPGDPLRAKYIAETFLEDAREVNNVRGMLGFTGTYKGRKISVMGHGMGIPSCSIYTKELITDFGVKKIIRVGSCGAVLPHVKLRDVVIGMGACTDSKVNRIRFKDHDFAAIADFDMVRNAVDAAKALGIDARVGNLFSADLFYSPDGEMFDVMEKYGILGVNMEAAGIYGVAAEFGAKALTICTVSDHIRTHEQTTAAERQTTFNDMIKIALESVLLGDKE | 0.3 | 0.2 | – |
| M181N (protein, UniProt P0ABP8 2-239, looked up, variant M181N) Purine nucleoside …: ATPHINAEMGDFADVVLMPGDPLRAKYIAETFLEDAREVNNVRGMLGFTGTYKGRKISVMGHGMGIPSCSIYTKELITDFGVKKIIRVGSCGAVLPHVKLRDVVIGMGACTDSKVNRIRFKDHDFAAIADFDMVRNAVDAAKALGIDARVGNLFSADLFYSPDGEMFDVMEKYGILGVENEAAGIYGVAAEFGAKALTICTVSDHIRTHEQTTAAERQTTFNDMIKIALESVLLGDKE | 0.4 | 0.1 | – |
| E180T (protein, UniProt P0ABP8 2-239, looked up, variant E180T) Purine nucleoside …: ATPHINAEMGDFADVVLMPGDPLRAKYIAETFLEDAREVNNVRGMLGFTGTYKGRKISVMGHGMGIPSCSIYTKELITDFGVKKIIRVGSCGAVLPHVKLRDVVIGMGACTDSKVNRIRFKDHDFAAIADFDMVRNAVDAAKALGIDARVGNLFSADLFYSPDGEMFDVMEKYGILGVTMEAAGIYGVAAEFGAKALTICTVSDHIRTHEQTTAAERQTTFNDMIKIALESVLLGDKE | 0.1 | 0.06 | – |
| E180D (protein, UniProt P0ABP8 2-239, looked up, variant E180D) Purine nucleoside …: ATPHINAEMGDFADVVLMPGDPLRAKYIAETFLEDAREVNNVRGMLGFTGTYKGRKISVMGHGMGIPSCSIYTKELITDFGVKKIIRVGSCGAVLPHVKLRDVVIGMGACTDSKVNRIRFKDHDFAAIADFDMVRNAVDAAKALGIDARVGNLFSADLFYSPDGEMFDVMEKYGILGVDMEAAGIYGVAAEFGAKALTICTVSDHIRTHEQTTAAERQTTFNDMIKIALESVLLGDKE | 60 | 81 | activity toward substrates MeP-dR and F-araA (in words) [4]: retained some appreciable level of activity |
| M181L (protein, UniProt P0ABP8 2-239, looked up, variant M181L) Purine nucleoside …: ATPHINAEMGDFADVVLMPGDPLRAKYIAETFLEDAREVNNVRGMLGFTGTYKGRKISVMGHGMGIPSCSIYTKELITDFGVKKIIRVGSCGAVLPHVKLRDVVIGMGACTDSKVNRIRFKDHDFAAIADFDMVRNAVDAAKALGIDARVGNLFSADLFYSPDGEMFDVMEKYGILGVELEAAGIYGVAAEFGAKALTICTVSDHIRTHEQTTAAERQTTFNDMIKIALESVLLGDKE | 1.6 | 0.6 | – |
| M181V (protein, UniProt P0ABP8 2-239, looked up, variant M181V) Purine nucleoside …: ATPHINAEMGDFADVVLMPGDPLRAKYIAETFLEDAREVNNVRGMLGFTGTYKGRKISVMGHGMGIPSCSIYTKELITDFGVKKIIRVGSCGAVLPHVKLRDVVIGMGACTDSKVNRIRFKDHDFAAIADFDMVRNAVDAAKALGIDARVGNLFSADLFYSPDGEMFDVMEKYGILGVEVEAAGIYGVAAEFGAKALTICTVSDHIRTHEQTTAAERQTTFNDMIKIALESVLLGDKE | 0.07 | 0.02 | – |
| A157F (protein, UniProt P0ABP8 2-239, looked up, variant A157F) Purine nucleoside …: ATPHINAEMGDFADVVLMPGDPLRAKYIAETFLEDAREVNNVRGMLGFTGTYKGRKISVMGHGMGIPSCSIYTKELITDFGVKKIIRVGSCGAVLPHVKLRDVVIGMGACTDSKVNRIRFKDHDFAAIADFDMVRNAVDAAKALGIDARVGNLFSFDLFYSPDGEMFDVMEKYGILGVEMEAAGIYGVAAEFGAKALTICTVSDHIRTHEQTTAAERQTTFNDMIKIALESVLLGDKE | 1.4 | 1.5 | – |
| A157V (protein, listed as Escherichia coli) MATPHINAEMGDFADVVLMPGDPLRAKYIAETFLEDAREVNNVRGMLGFTGTYKGRKISVMGHGMGIPSCSIYTKELITDFGVKKIIRVGSCGAVLPHVKLRDVVIGMGACTDSKVNRIRFKDHDFAAIADFDMVRNAVDAAKALGIDARVGNLFSVDLFYSPDGEMFDVMEKYGILGVEMEAAGIYGVAAEFGAKALTICTVSDHIRTHEQTTAAERQTTFNDMIKIALESVLLGDKE | – | – | activity toward substrates MeP-dR and F-araA (in words) [4]: retained some appreciable level of activity |
